Experimental data reported in patent KR20140009174A (dated 2014).
Changes are numbered by the printed parent chain. In names and notes the source's numbering stands.

B1: 항-CXCR4 Mab 301aE5 (마우스 모노클론 항체) (antibody, V domains shown)
VH: QVQLKESGPGLVAPSQSLSITCTVSGFSLTDYGVYWVRQPPGKGLEWLGMIWGDGTTDYNSALKSRLSISKDNSKSQVFLKMNTLQTDDTARYYCARGRQFGFDYWGQGTTLTVSS
VL: DIVMSQSPSSLAVSAGEKVTMRCKSSQSLFNSRTRKNYLAWYQQKPGQSPKLLIFWASIRESGVPDRFTGSGSGTDFTLTISSVQAEDLAVYYCKQSYNLRTFGGGTKLEIK
B2: 515H7 인간화 VH 변형체 1 (VH1) + 마우스/키메라 VL (cVL) (antibody, human IgG1, kappa)
heavy: not shown
light: DIVMSQSPSSLAVSAGEKVTMSCKSSQSLFNSRTRKNYLAWYQQKPGQSPKLLIYWASARDSGVPARFTGSGSETYFTLTISRVQAEDLAVYYCMQSFNLRTFGQGTKVEIKRTVAAPSVFIFPPSDEQLKSGTASVVCLLNNFYPREAKVQWKVDNALQSGNSQESVTEQDSKDSTYSLSSTLTLSKADYEKHKVYACEVTHQGLSSPVTKSFNRGEC
notes: also called VH1 cVL; VH 변형체 1 (VH1) 마우스 VL 조합
B3: hz515H7 VH1 VL2 (VH 변형체 1 + VL 변형체 2) (antibody, human IgG1, kappa)
heavy: not shown
light: B2 light with S5T, A15L, K18R, V19A
B4: 항-CXCR4 키메라 Mab c515H7 (antibody, human IgG1, kappa, V domains shown)
VH: EVNLVESGGGLVQPGGSLRLSCATSGFTFTDNYMSWVRQPPGKALEWLGFIRNKANGYTTDYSASVRGRFTISRDNSQSILYLQMNALRAEDSATYYCARDVGSNYFDYWGQGTTLTVSS
VL: DIVMSQSPSSLAVSAGEKVTMSCKSSQSLFNSRTRKNYLAWYQQKPGQSPKLLIYWASARDSGVPARFTGSGSETYFTLTISRVQAEDLAVYYCMQSFNLRTFGQGTKVEIKR
B5: hz515H7 VH1 D76N VL2.1 (antibody, V domains shown)
VH: EVQLVESGGGLVQPGRSLRLSCTASGFTFTDNYMSWVRQAPGKGLEWVGFIRNKANGYTTEYAASVKGRFTISRDNSKSIAYLQMNSLKTEDTAVYYCARDVGSNYFDYWGQGTLVTVSS
VL: B4 VL with S5T, S9D, A15L, K18R, V19A, S49P, A66D, T69S
B6: 항-CXCR4 Mab 515H7 (마우스 모노클론 항체) (antibody, V domains shown)
VH: B4 VH
VL: B1 VL with R22S, F55Y, I59A, E61D, D66A, G74E, D76Y, S83R, K95M, Y98F
B7: hz515H7 VH1 D76N VL2 (antibody, V domains shown)
VH: B5 VH
VL: B4 VL with S5T, A15L, K18R, V19A
notes: also called hz515H7 VH1 D76N-VL2 Mab; 인간화 515H7 Mab
B8: hz515H7 VH1 D76N VL2.2 (antibody, V domains shown)
VH: B5 VH
VL: B4 VL with S5T, S9D, A15L, K18R, V19A, S49P, A66D, L89V
B9: hz515H7 VH1 D76N VL2.3 (antibody, V domains shown)
VH: B5 VH
VL: B4 VL with S5T, S9D, A15L, K18R, V19A, S49P, A66D, R83S, V84L

What was measured:
[1] = target: CXCR4/Rluc + CXCR4/YFP (HEK293 세포의 CXCR4 동종이량체 BRET 파트너) (human; Renilla reniformis); assay: cell-based or functional assay
Chain of CXCR4/Rluc + CXCR4/YFP (HEK293 세포의 CXCR4 동종이량체 BRET 파트너) (human; Renilla reniformis) (chain, as listed by the source, chain 1 of 2): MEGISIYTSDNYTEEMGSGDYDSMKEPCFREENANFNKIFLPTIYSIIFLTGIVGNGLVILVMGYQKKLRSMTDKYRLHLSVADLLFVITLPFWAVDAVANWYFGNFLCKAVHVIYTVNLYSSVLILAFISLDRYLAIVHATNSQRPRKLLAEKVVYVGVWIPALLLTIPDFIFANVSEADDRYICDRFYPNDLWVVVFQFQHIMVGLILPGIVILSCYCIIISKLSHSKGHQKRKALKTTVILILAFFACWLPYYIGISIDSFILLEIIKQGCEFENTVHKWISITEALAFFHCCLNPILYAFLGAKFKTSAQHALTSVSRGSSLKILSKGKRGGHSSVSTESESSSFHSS
Chain of CXCR4/Rluc + CXCR4/YFP (HEK293 세포의 CXCR4 동종이량체 BRET 파트너) (human; Renilla reniformis) (chain, as listed by the source, chain 2 of 2): as the sequence (chain, as listed by the source, chain 1 of 2) above

[2] = target: T1, 인간 CXCR4 (케모카인 (C-X-C 모티브) 수용체 4) (human, UniProt P61073 1-352); assay: competition flow cytometry on NIH3T3-CXCR4 cells; competitor biotinylated mouse 515H7
T1 construct: also called hCXCR4; CXCR4 수용체
T1 sequence (P61073 whole entry): as the sequence (chain, as listed by the source, chain 1 of 2) above

[3] = target: T1, 인간 CXCR4 (케모카인 (C-X-C 모티브) 수용체 4); assay: competition flow cytometry on NIH3T3-CXCR4 cells; competitor biotinylated mouse 515H7 (legend of Fig. 19)
[4] = target: T1, 인간 CXCR4 (케모카인 (C-X-C 모티브) 수용체 4); assay: cell-based or functional assay
[5] = target: T1, 인간 CXCR4 (케모카인 (C-X-C 모티브) 수용체 4); assay: FACS on NIH3T3-CXCR4 cells (legend of Fig. 21)

| Binder | SDF-1-유도성 BRET 증가의 저해 [1] [%] | binding result [5] | SDF-1-유도성 BRET 증가의 저해 백분율 [1] [%] | other results |
| --- | --- | --- | --- | --- |
| B1 | 69 | – | – | – |
| B2 | – | – | – | binding result [2]: binds |
| B3 | – | – | – | binding result [3]: binds |
| B4 | 96 | – | – | IC50, 89.6 복제 저해, 마라비록 2 μg/ml 첨가 시 [4]: 0.2 µg/mL; IC50, 인간 PBMC에서 이중 친화성 X4R5 바이러스 89.6 복제 저해 (다수 회차 검정법) [4]: 2 µg/mL |
| B5 | – | binds | 65 | – |
| B6 | 69 | – | – | – |
| B7 | – | binds | ~88 | – |
| B8 | – | binds | 33 | – |
| B9 | – | binds | 21 | – |
